From article PMC3691886 come the findings set out here.

In test [1] the target is bovine α-chymotrypsin (bovine). Nature of the test: enzyme inhibition progress curves; pseudo-first-order conditions, 4 h at 25°C, 5-600 nM inhibitor, 200 μM substrate, 0.5 nM bovine α-chymotrypsin.
Test [2] has as its target bovine α-chymotrypsin (bovine).
The target in test [3] is recombinant α1-antitrypsin, M allele with the C232S mutation (AT_(C232S)) (UniProt P01009). Nature of the test: FRET or BRET; heat-induced polymerization at 50°C; 0.1 mg/ml protein in 10 mM Na2HPO4/NaH2PO4, 0.1 M NaCl, 0.1% PEG8K, pH 7.4; 2-8 μM ATTO-550-Ni-NTA and ATTO-647N-Ni-NTA on the His tag; apparent rate, corrected to zero dye; monomer to polymer. Background: Bioluminescence resonance energy transfer reports proximity on the nanometre scale.

For test [4] the target is unchanged. Nature of the test: FRET or BRET; heat-induced polymerization at 55°C; 0.1 mg/ml protein in 10 mM Na2HPO4/NaH2PO4, 0.1 M NaCl, 0.1% PEG8K, pH 7.4; 2-8 μM ATTO-550-Ni-NTA and ATTO-647N-Ni-NTA on the His tag; apparent rate, corrected to zero dye; monomer to polymer.
The target is the same in test [5]. Put plainly: FRET or BRET; heat-induced polymerization at 60°C; 0.1 mg/ml protein in 10 mM Na2HPO4/NaH2PO4, 0.1 M NaCl, 0.1% PEG8K, pH 7.4; 2-8 μM ATTO-550-Ni-NTA and ATTO-647N-Ni-NTA on the His tag; apparent rate, corrected to zero dye; monomer to polymer.
The target in test [6] is α1-antitrypsin reactive loop mutant P2P1′ (P357D, S359D) on the C232S background (UniProt P01009). Nature of the test: FRET or BRET; heat-induced polymerization at 50°C; 0.1 mg/ml protein in 10 mM Na2HPO4/NaH2PO4, 0.1 M NaCl, 0.1% PEG8K, pH 7.4; 2-8 μM ATTO-550-Ni-NTA and ATTO-647N-Ni-NTA on the His tag; apparent rate, corrected to zero dye; monomer to polymer.
Test [7] shares this target. Put plainly: FRET or BRET; heat-induced polymerization at 55°C; 0.1 mg/ml protein in 10 mM Na2HPO4/NaH2PO4, 0.1 M NaCl, 0.1% PEG8K, pH 7.4; 2-8 μM ATTO-550-Ni-NTA and ATTO-647N-Ni-NTA on the His tag; apparent rate, corrected to zero dye; monomer to polymer.
Test [8] shares this target. Put plainly: FRET or BRET; heat-induced polymerization at 60°C; 0.1 mg/ml protein in 10 mM Na2HPO4/NaH2PO4, 0.1 M NaCl, 0.1% PEG8K, pH 7.4; 2-8 μM ATTO-550-Ni-NTA and ATTO-647N-Ni-NTA on the His tag; apparent rate, corrected to zero dye; monomer to polymer.
For test [9], the target named is α1-antitrypsin reactive loop mutant P4 (A355D) on the C232S background (UniProt P01009). Nature of the test: FRET or BRET; heat-induced polymerization at 50°C; 0.1 mg/ml protein in 10 mM Na2HPO4/NaH2PO4, 0.1 M NaCl, 0.1% PEG8K, pH 7.4; 2-8 μM ATTO-550-Ni-NTA and ATTO-647N-Ni-NTA on the His tag; apparent rate, corrected to zero dye; monomer to polymer.
Test [10] shares this target. Nature of the test: FRET or BRET; heat-induced polymerization at 55°C; 0.1 mg/ml protein in 10 mM Na2HPO4/NaH2PO4, 0.1 M NaCl, 0.1% PEG8K, pH 7.4; 2-8 μM ATTO-550-Ni-NTA and ATTO-647N-Ni-NTA on the His tag; apparent rate, corrected to zero dye; monomer to polymer.
The target is the same in test [11]. Put plainly: FRET or BRET; heat-induced polymerization at 60°C; 0.1 mg/ml protein in 10 mM Na2HPO4/NaH2PO4, 0.1 M NaCl, 0.1% PEG8K, pH 7.4; 2-8 μM ATTO-550-Ni-NTA and ATTO-647N-Ni-NTA on the His tag; apparent rate, corrected to zero dye; monomer to polymer.
The target of test [12] is α1-antitrypsin reactive loop mutant P6 (L353D) on the C232S background (UniProt P01009). Put plainly: FRET or BRET; heat-induced polymerization at 50°C; 0.1 mg/ml protein in 10 mM Na2HPO4/NaH2PO4, 0.1 M NaCl, 0.1% PEG8K, pH 7.4; 2-8 μM ATTO-550-Ni-NTA and ATTO-647N-Ni-NTA on the His tag; apparent rate, corrected to zero dye; monomer to polymer.
The target is the same in test [13]. Put plainly: FRET or BRET; heat-induced polymerization at 55°C; 0.1 mg/ml protein in 10 mM Na2HPO4/NaH2PO4, 0.1 M NaCl, 0.1% PEG8K, pH 7.4; 2-8 μM ATTO-550-Ni-NTA and ATTO-647N-Ni-NTA on the His tag; apparent rate, corrected to zero dye; monomer to polymer.
For test [14] the target is unchanged. Put plainly: FRET or BRET; heat-induced polymerization at 60°C; 0.1 mg/ml protein in 10 mM Na2HPO4/NaH2PO4, 0.1 M NaCl, 0.1% PEG8K, pH 7.4; 2-8 μM ATTO-550-Ni-NTA and ATTO-647N-Ni-NTA on the His tag; apparent rate, corrected to zero dye; monomer to polymer.
Test [15] deals with α1-antitrypsin reactive loop mutant P6P4 (L353D, A355D) on the C232S background (UniProt P01009). Put plainly: FRET or BRET; heat-induced polymerization at 50°C; 0.1 mg/ml protein in 10 mM Na2HPO4/NaH2PO4, 0.1 M NaCl, 0.1% PEG8K, pH 7.4; 2-8 μM ATTO-550-Ni-NTA and ATTO-647N-Ni-NTA on the His tag; apparent rate, corrected to zero dye; monomer to polymer.
For test [16] the target is unchanged. Nature of the test: FRET or BRET; heat-induced polymerization at 55°C; 0.1 mg/ml protein in 10 mM Na2HPO4/NaH2PO4, 0.1 M NaCl, 0.1% PEG8K, pH 7.4; 2-8 μM ATTO-550-Ni-NTA and ATTO-647N-Ni-NTA on the His tag; apparent rate, corrected to zero dye; monomer to polymer.
The target is the same in test [17]. Nature of the test: FRET or BRET; heat-induced polymerization at 60°C; 0.1 mg/ml protein in 10 mM Na2HPO4/NaH2PO4, 0.1 M NaCl, 0.1% PEG8K, pH 7.4; 2-8 μM ATTO-550-Ni-NTA and ATTO-647N-Ni-NTA on the His tag; apparent rate, corrected to zero dye; monomer to polymer.
Test [18] concerns the target α1-antitrypsin reactive loop mutant P10P8 (G349D, M351D) on the C232S background (UniProt P01009). Put plainly: FRET or BRET; heat-induced polymerization at 50°C; 0.1 mg/ml protein in 10 mM Na2HPO4/NaH2PO4, 0.1 M NaCl, 0.1% PEG8K, pH 7.4; 2-8 μM ATTO-550-Ni-NTA and ATTO-647N-Ni-NTA on the His tag; apparent rate, corrected to zero dye; monomer to polymer.
Test [19] shares this target. Nature of the test: FRET or BRET; heat-induced polymerization at 55°C; 0.1 mg/ml protein in 10 mM Na2HPO4/NaH2PO4, 0.1 M NaCl, 0.1% PEG8K, pH 7.4; 2-8 μM ATTO-550-Ni-NTA and ATTO-647N-Ni-NTA on the His tag; apparent rate, corrected to zero dye; monomer to polymer.
Test [20] shares this target. Nature of the test: FRET or BRET; heat-induced polymerization at 60°C; 0.1 mg/ml protein in 10 mM Na2HPO4/NaH2PO4, 0.1 M NaCl, 0.1% PEG8K, pH 7.4; 2-8 μM ATTO-550-Ni-NTA and ATTO-647N-Ni-NTA on the His tag; apparent rate, corrected to zero dye; monomer to polymer.

A word on the kon: it is a measure of how fast the partners come together. Regarding “recombinant α1-antitrypsin, M allele with the C232S mutation (AT_(C232S)) (from UniProt P01009 26-418) (natural protein)”, in test [1], the kass•SI is 1.5e+06. In addition, in test [1], the kon is 1.5e+06 M⁻¹ s⁻¹. In test [2], the SI (stoichiometry of inhibition): residual activity of 0.5 μM bovine α-chymotrypsin after 30 min with inhibitor was 1.1. For the same substance, the k (app,fr) (apparent rate of polymerization) in test [3] came out at 0.00021 s⁻¹; in test [4], 0.0016 s⁻¹; in test [5] it was 0.01 s⁻¹.

The substance “α1-antitrypsin reactive loop mutant P2P1′ (P357D, S359D) on the C232S background (from UniProt P01009 26-418) (natural protein)” had an SI (stoichiometry of inhibition): residual activity of 0.5 μM bovine α-chymotrypsin after 30 min with inhibitor in test [2] of 100. Besides, the k (app,fr) (apparent rate of polymerization) in test [6] amounted to 0.00022 s⁻¹; in [7], 0.0017 s⁻¹; in test [8] it was 0.012 s⁻¹.

Take “α1-antitrypsin reactive loop mutant P4 (A355D) on the C232S background (from UniProt P01009 26-418) (natural protein)”: the k (app,fr) (apparent rate of polymerization) in [9] amounted to 0.00011 s⁻¹; in [10], 0.0011 s⁻¹; in [11] it was 0.078 s⁻¹.

“α1-antitrypsin reactive loop mutant P6 (L353D) on the C232S background (from UniProt P01009 26-418) (natural protein)”: the k (app,fr) (apparent rate of polymerization) was 3.7e-05 s⁻¹ in test [12], 0.0007 s⁻¹ in [13] and 0.01 s⁻¹ in test [14].

Regarding “α1-antitrypsin reactive loop mutant P6P4 (L353D, A355D) on the C232S background (from UniProt P01009 26-418) (natural protein)”, the SI (stoichiometry of inhibition): residual activity of 0.5 μM bovine α-chymotrypsin after 30 min with inhibitor in [2] came out at 89. The figures for the k (app,fr) (apparent rate of polymerization) in test [15], in test [16] and in test [17] were 9.8e-06 s⁻¹, 0.00044 s⁻¹ and 0.0055 s⁻¹, respectively.

In [1], “α1-antitrypsin reactive loop mutant P10P8 (G349D, M351D) on the C232S background (from UniProt P01009 26-418) (natural protein)” registered a kass•SI of 570000. In test [1], the kon was 120000 M⁻¹ s⁻¹. In addition, the SI (stoichiometry of inhibition): residual activity of 0.5 μM bovine α-chymotrypsin after 30 min with inhibitor in [2] is 4.56. Besides, the k (app,fr) (apparent rate of polymerization) in test [18] was 7.2e-05 s⁻¹; in test [19] it was 0.00066 s⁻¹; in [20] it was 0.0028 s⁻¹.
